Reference: PMC10462681

How the values were obtained:
[1] = molecular target: LRP4-HA mutant p.Tyr607Cys (c.1820A > G; LRP4-Mut), expressed in HEK293T cells (human) (UniProt O75096)
[2] = molecular target: LRP4-HA mutant p.Tyr607Cys (c.1820A > G; LRP4-Mut), expressed in HEK293T cells (human) (UniProt O75096); assay: pull-down; LRP4-HA (wild-type or mutated) from transfected HEK293T cells immobilised on beads with anti-HA antibody, incubated with or without recombinant agrin (1 µg/mL); western blot with anti-agrin antibody; N = 3 blots

- MuSK phosphorylation (anti-4G10 blot of immunoprecipitated MuSK-Flag) induced by agrin (0.4 µg/ml; 1, 3 and 6 h) in HEK293T cells expressing MuSK-Flag and mutant LRP4-HA, against wild-type LRP4-HA [1]: 40 % decrease
- percent decrease of binding against wild-type LRP4 [2]: 80%
Substance: recombinant rat agrin (neural agrin) (from UniProt P25304 1-1959) (ligand)
